Test results reported in US20080058263A1 (published 2008).
Substitutions are numbered along the chain they refer to.

T1: VEGFR-3-Fc (UniProt P35916 25-328)
T1 construct: domain: first three Ig domains; conditioned supernatant of 293T cells; also called VEGFR-3-Fc fusion protein; not shown: Fc fragment of the pIg vector
T1 sequence (looked up): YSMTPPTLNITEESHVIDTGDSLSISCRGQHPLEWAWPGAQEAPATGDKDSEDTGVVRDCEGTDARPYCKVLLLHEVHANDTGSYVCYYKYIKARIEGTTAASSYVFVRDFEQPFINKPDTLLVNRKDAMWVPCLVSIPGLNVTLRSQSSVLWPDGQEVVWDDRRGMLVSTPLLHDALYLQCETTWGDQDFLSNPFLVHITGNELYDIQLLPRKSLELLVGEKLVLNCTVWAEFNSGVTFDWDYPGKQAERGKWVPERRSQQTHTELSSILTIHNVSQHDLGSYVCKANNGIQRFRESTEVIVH

B1: 23-6 (ligand)
chain: AHYNTEILKSIDNEWRKTQCMPREVCIDVGKEYPDEIEYIFKPPCVSVYRCGGCCNDEGLECMNTSTSYLSKTLFEIKPHQGQHIGEMSFANHTSCRCMSKLD
B2: 23-2 (ligand)
chain: B1 chain with A91L, N92Q, T94N, S95K, R97E, M99R, S100P, L102K
B3: 53-8 (ligand)
chain: B1 chain with R23I, V25T, C26L, I27V, V29I, G30F, K31Q, D57S, E61Q
B4: 21-2 (ligand)
chain: AHYNTEILKSIDNEWRKTQCMPREVCIDVGKEYPDEIEYIFKPSCVPLMRCGGCCNDEGLECMNTSTSYLSKTLFEIKPHQGQHIGEMSFLQHNKCECRPKKD
B5: 23-8 (ligand)
chain: B1 chain with D57S, E61Q
B6: 21-6 (ligand)
chain: B1 chain with P44S, S47P, V48L, Y49M
B7: 23-4 (ligand)
chain: B4 chain with S44P, P47S, L48V, M49Y, D57S, E61Q
B8: 53-6 (ligand)
chain: B1 chain with R23I, V25T, C26L, I27V, V29I, G30F, K31Q
B9: 51-6 (ligand)
chain: AHYNTEILKSIDNEWRKTQCMPIETLVDIFQEYPDEIEYIFKPSCVPLMRCGGCCNDEGLECMNTSTSYLSKTLFEIKPHQGQHIGEMSFANHTSCRCMSKLD
B10: 21-8 (ligand)
chain: B1 chain with P44S, S47P, V48L, Y49M, D57S, E61Q
B11: 22-8 (ligand)
chain: B1 chain with Y33F, P34G, D35V, E36A, I37T, E38N, Y39T, I40F, D57S, E61Q
B12: 22-6 (ligand)
chain: B1 chain with Y33F, P34G, D35V, E36A, I37T, E38N, Y39T, I40F
B13: 24-6 (ligand)
chain: AHYNTEILKSIDNEWRKTQCMPREVCIDVGKEFGVATNTFFKPSCVPLMRCGGCCNDEGLECMNTSTSYLSKTLFEIKPHQGQHIGEMSFANHTSCRCMSKLD

Biological target: T2, VEGFR-2-Fc (UniProt P35968 20-322)
T2 construct: domain: first 3 Ig domains; conditioned supernatant of 293T cells; also called VEGFR-2-Fc fusion protein; not shown: Fc fragment of the pIg vector
Assay: receptor-Fc IP
Summary of the method: (§1)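 Binding of ligand from sample supernatant measured by pentahistidine-antibody immunoprecipitation. IP mix: PBS with 1.5% BSA, 0.06% Tween 20, 3 μg/ml heparin and 400 ng/ml fusion protein, added 1:2 to sample supernatant.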

T2 sequence (P35968 20-322): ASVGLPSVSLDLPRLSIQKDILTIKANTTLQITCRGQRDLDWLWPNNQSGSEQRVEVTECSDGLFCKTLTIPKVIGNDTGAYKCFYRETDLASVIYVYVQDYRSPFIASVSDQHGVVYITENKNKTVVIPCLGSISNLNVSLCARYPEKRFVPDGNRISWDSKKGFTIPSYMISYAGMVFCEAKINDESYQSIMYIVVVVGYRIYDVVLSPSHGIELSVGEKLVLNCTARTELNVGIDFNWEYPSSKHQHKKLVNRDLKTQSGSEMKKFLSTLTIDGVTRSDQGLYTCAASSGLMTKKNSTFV

binding result | Binder
no binding | B1
no binding | B2
no binding | B3
no binding | B4
no binding | B5
no binding | B6
no binding | B7
no binding | B8
no binding | B9
no binding | B10
binds | B11
binds | B12
no binding | B13

Biological target: T3, VEGFR-1-Fc (UniProt P17948 27-338)
T3 construct: domain: first three Ig domains; expressed in Drosophila S2 cells, purified on Protein A sepharose; also called VEGFR-1-Fc fusion protein; not shown: Fc fragment from the Signal-pIgPlus vector
Assay: receptor-Fc IP
Summary of the method: as §1

T3 sequence (P17948 27-338): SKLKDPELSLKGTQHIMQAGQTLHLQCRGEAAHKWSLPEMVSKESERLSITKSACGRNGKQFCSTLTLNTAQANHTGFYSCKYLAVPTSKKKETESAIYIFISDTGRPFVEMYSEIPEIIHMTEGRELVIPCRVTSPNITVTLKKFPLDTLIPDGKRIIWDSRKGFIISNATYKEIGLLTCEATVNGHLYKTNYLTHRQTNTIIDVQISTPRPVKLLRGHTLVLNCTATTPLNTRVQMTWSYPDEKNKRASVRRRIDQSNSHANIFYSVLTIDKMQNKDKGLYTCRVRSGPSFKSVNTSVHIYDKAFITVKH

binding result | Binder
no binding | B1
no binding | B2
no binding | B3
no binding | B4
no binding | B5
no binding | B6
no binding | B7
no binding | B8
no binding | B9
no binding | B10
no binding | B11
no binding | B12
no binding | B13

Biological target: T1, VEGFR-3-Fc
Assay: receptor-Fc IP
Summary of the method: as §1

binding result | Binder
no binding | B1
no binding | B2
no binding | B3
no binding | B4
no binding | B5
no binding | B6
no binding | B7
no binding | B8
no binding | B9
no binding | B10
binds | B11
binds | B12
no binding | B13
